Patent publication US20240209089A1
“And” between values parts separate entries of the source, which are not always exact repeats. Equal values may be shown once.

Key:
Fc protein = test: phage ELISA on coated Fc protein, blank control
[1] = molecular target: CD8α-Fc fusion protein (human); test: phage ELISA on coated CD8α-Fc, blank control
Sequence of CD8α-Fc fusion protein (human) (chain, as listed by the source): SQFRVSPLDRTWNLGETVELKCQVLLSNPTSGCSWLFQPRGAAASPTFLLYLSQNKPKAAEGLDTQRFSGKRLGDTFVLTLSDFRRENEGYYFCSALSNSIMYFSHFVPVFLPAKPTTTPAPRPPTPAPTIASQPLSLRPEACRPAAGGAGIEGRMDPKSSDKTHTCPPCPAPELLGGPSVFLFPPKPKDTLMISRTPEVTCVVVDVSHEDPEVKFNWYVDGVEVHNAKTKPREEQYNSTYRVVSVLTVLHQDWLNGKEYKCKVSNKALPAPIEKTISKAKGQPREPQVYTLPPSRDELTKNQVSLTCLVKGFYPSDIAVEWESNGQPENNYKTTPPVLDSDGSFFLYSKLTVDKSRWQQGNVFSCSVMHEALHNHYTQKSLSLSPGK

**Q.** Which results are given for blank phage?
**A.** OD450 (Fc protein): 0.093 and 0.068; OD450 [1]: 0.067
